The conditions of data set [1]: mice [16,17]; cited from earlier work.
For data set [2] the following is noted: rats [16,17]; cited from earlier work.
The next data set concerns the target T1, ovine COX-1 (oCOX-1) (Ovis aries, UniProt P05979).
T1 construct: COX-1 was purified from ram seminal vesicles as previously described; tissue Oxford Biomedical Research; host or cells: ram seminal vesicles
T1 sequence (P05979 25-600): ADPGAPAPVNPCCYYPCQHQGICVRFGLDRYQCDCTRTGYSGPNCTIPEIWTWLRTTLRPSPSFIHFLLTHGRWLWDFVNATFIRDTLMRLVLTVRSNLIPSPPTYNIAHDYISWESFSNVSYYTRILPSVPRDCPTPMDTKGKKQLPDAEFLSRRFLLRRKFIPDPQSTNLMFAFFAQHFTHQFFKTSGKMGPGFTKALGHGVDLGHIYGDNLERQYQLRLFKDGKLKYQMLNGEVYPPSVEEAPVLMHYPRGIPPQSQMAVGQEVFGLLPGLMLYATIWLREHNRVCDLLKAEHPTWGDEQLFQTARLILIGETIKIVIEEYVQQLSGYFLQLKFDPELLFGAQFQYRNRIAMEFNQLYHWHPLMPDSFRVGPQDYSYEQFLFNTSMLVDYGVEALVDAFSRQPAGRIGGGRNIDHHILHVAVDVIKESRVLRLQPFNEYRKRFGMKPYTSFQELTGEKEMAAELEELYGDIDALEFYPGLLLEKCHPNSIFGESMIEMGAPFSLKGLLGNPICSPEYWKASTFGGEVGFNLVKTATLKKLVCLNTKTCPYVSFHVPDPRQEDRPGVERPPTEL
The following applies: compared with AA; cited from earlier work.

Substrate in data set [3]: CCCCC/C=C\C/C=C\C/C=C\C/C=C\CCCC(=O)O
In words: Steady-state kinetics of COX-2 mediated oxygenation (oxygraph O2 uptake). It counts as biochemical, murine. The settings on record: other: 50 nM COX-2, 100 mM Tris-HCl, 500 μM phenol. As for the experimental part: (§1) Enzymology: COX-1 was purified from ram seminal vesicles as previously described. Site-directed mutagenesis of COX-2 was performed as described previously. Recombinant COX-2 enzymes were expressed in Sf-9 insect cells and purified by ion-exchange chromatography and gel filtration as previously described. Apo-enzymes were reconstituted with hematin prior to activity assays. […] COX activity was quantified as previously described. Initial reaction velocity data were obtained from the linear portion of the oxygen uptake curves. Oxygraph data were analyzed by nonlinear regression with Enzyme Kinetics 1.5 software (Trinity Software, Campton, N.H.).

Substrate in data set [4]: CCCCC/C=C\C/C=C\C/C=C\C/C=C\CCCCNCC(=O)O
The description is as above. In kind it is biochemical, murine. The following applies: other: 50 nM COX-2, 100 mM Tris-HCl, 500 μM phenol. On the procedure:
as §1

As for `CCCCC/C=C\C/C=C\C/C=C\C/C=C\CCCC(=O)NCCCC(=O)O` [δ-arachidonyl aminobutuyic acid], the analgesia result in data set [1] is “induce analgesia”. The “formalin-induced tonic inflammatory pain” value in data set [2] is “suppresses formalin-induced tonic inflammatory pain”.
Turning to `CCCCC/C=C\C/C=C\C/C=C\C/C=C\CCCC(=O)NCCO` [AEA, arachidonyl ethanolamide], the “metabolism by COX-1” value on ovine COX-1 (oCOX-1) is recorded as “much lesser extent than AA”.
As to `CCCCC/C=C\C/C=C\C/C=C\C/C=C\CCCC(=O)OC(CO)CO` [2-AG, 2-arachidonlyglycerol], at ovine COX-1 (oCOX-1), the “metabolism by COX-1” value was “much lesser extent than AA”.

B1: Murine COX-2 (Mus musculus) (protein)
chain: ANPCCSNPCQNRGECMSTGFDQYKCDCTRTGFYGENCTTPEFLTRIKLLLKPTPNTVHYILTHFKGVWNIVNNIPFLRSLIMKYVLTSRSYLIDSPPTYNVHYGYKSWEAFSNLSYYTRALPPVADDCPTPMGVKGNKELPDSKEVLEKVLLRREFIPDPQGSNMMFAFFAQHFTHQFFKTDHKRGPGFTRGLGHGVDLNHIYGETLDRQHKLRLFKDGKLKYQVIGGEVYPPTVKDTQVEMIYPPHIPENLQFAVGQEVFGLVPGLMMYATIWLREHNRVCDILKQEHPEWGDEQLFQTSRLILIGETIKIVIEDYVQHLSGYHFKLKFDPELLFNQQFQYQNRIASEFNTLYHWHPLLPDTFNIEDQEYSFKQFLYNNSILLEHGLTQFVESFTRQIAGRVAGGRNVPIAVQAVAKASIDQSREMKYQSLNEYRKRFSLKPYTSFEELTGEKEMAAELKALYSDIDVMELYPALLVEKPRPDAIFGETMVELGAPFSLKGLMGNPICSPQYWKPSTFGGEVGFKIINTASIQSLICNNVKGCPFTSFNVQDPQPTKTATINASASHSRLDDINPTVLIKRRSTEL
notes: made in house; host or cells: Sf-9 insect cells
A word on the Km: it is the substrate concentration at which the rate is half of its maximum. In general, kcat refers to the number of substrate molecules converted per active site and unit of time at saturation. For orientation: kcat/Km means the second-order rate constant that governs catalysis at low substrate concentration. Regarding B1, in data set [3], the Km turned out to be 3.3 ± 1.0 µM, the turnover number (kcat) worked out at 16.6 ± 1.7 s⁻¹ and the kcat/Km came to 5.08e+06 M⁻¹ s⁻¹. Further, in data set [4], the Km is 11.7 ± 1.4 µM, the catalytic constant (kcat) was determined as 6.3 ± 1.1 s⁻¹ and the kcat/Km is 540000 M⁻¹ s⁻¹.
